Experimental data reported in patent publication US7276363B2, “Nucleic acid molecules encoding red and green emitting luciferases” (Toyo Boseki Kabushiki Kaisha, priority 1998, dated 2007).

B1: Phrixothrix hirtus red light-emitting luciferase PhRE, recombinant, wild type, SEQ ID NO: 4 (Phrixothrix hirtus) (protein)
chain: MEEENIVNGDRPRDLVFPGTAGLQLYQSLYKYSYITDGIIDAHTNEVISYAQIFETSCRLAVSLEKYGLDHNNVVAICSENNIHFFGPLIAALYQGIPMATSNDMYTEREMIGHLNISKPCLMFCSKKSLPFILKVQKHLDFLKKVIVIDSMYDINGVECVFSFVSRYTDHAFDPVKFNPKEFDPLERTALIMTSSGTTGLPKGVVISHRSITIRFVHSSDPIYGTRIAPDTSILAIAPFHHAFGLFTALAYFPVGLKIVMVKKFEGEFFLKTIQNYKIASIVVPPPIMVYLAKSPLVDEYNLSSLTEIACGGSPLGRDIADKVAKRLKVHGILQGYGLTETCSALILSPNDRELKKGAIGTPMPYVQVKVIDINTGKALGPREKGEICFKSQMLMKGYHNNPQATRDALDKDGWLHTGDLGYYDEDRFIYVVDRLKELIKYKGYQVAPAELENLLLQHPNISDAGVIGIPDEFAGQLPSACVVLEPGKTMTEKEVQDYIAELVTTTKHLRGGVVFIDSIPKGPTGKLMRNELRAIFAREQAKSKL
B2: Phrixothrix vivianii green light-emitting luciferase PvGR, recombinant, wild type, SEQ ID NO: 2 (Phrixothrix vivianii) (protein)
chain: MEEENIRHGERPRDIVHPGSAGQQLYQSLYKFASFPEAIIDAHTNEVISYAQIFETSCRLAVSIEQYGLNENNVVGVCSENNINFFNPVLAALYLGIPVATSNDMYTDGELTGHLNISKPTIMFSSKKALPLILRVQQNLSFIKKVVVIDSMYDINGVECVSTFVARYTDHTFDPLSFTPKDFDPLEKIALIMSSSGTTGLPKGVVLSHRSLTIRFVHSRDPIYGTRTVPQTSILSLVPFHHAFGMFTTLSYFVVGLKVVMLKKFEGALFLKTIQNYKIPTIVVAPPVMVFLAKSPLVDQYDLSSLTEVATGGAPLGKDVAEAVAKRLKLPGIIQGYGLTETCCAVMITPHNAVKTGSTGRPLPYIKAKVLDNATGKALGPGERGEICFQSEMIMKGYYNNPEATIDTIDKDGWLHSGDIGYYDEDGNFFIVDRLKELIKYKGYQVAPAELENLLLQHPSIADAGVTGVPDEFGGQLPAACVVLESGKTLTEKEVQDFIAAQVTPTKHLRGGVVFVDSIPKGPTGKLIRKELREIFAQRAPKSKL
B3: PhRE: recombinant red light-emitting luciferase of Phrixothrix hirtus head lanterns, 546 amino acid residues (protein, listed as Phrixothrix hirtus)
chain: MEEENVVNGDRPRDLVFPGTAGLQLYQSLYKYSYITDGIIDAHTNEVISYAQIFETSCRLAVSLEKYGLDHNNVVAICSENNIHFFGPLIAALYQGIPMATSNDMYTEREMIGHLNISKPCLMFCSKKSLPFILKVQKHLDFLKRVIVIDSMYDINGVECVFSFDSRNTDHAFDPVKFNPKEFDPLERTALIMTSSGTTGLPKGVVISHRSITIRFVHSSDPIYGTRIAPDTSILAIAPFHHAFGLFTALAYFPVGLKIVMVKKFEGEFFLKTIQNYKIASIVVPPPIMVYLAKSPLVDEYNCSSLTEIASGGSPLGRDIADKVAKRLKVHGILQGYGLTETCSALILSPNDRELKKGAIGTPMPYVQVKVIDINTGKALGPREKGEICFKSQMLMKGYHNNPQATRDALDKDGWLHTGDLGYYDEDRFIYVVDRLKELIKYKGYQVAPAELENLLLQHPNISDAGVIEFRTNLLVNYLSACVVLEPGKTMTEKEVQDYIAELVTTTKHLRGGVVFIDSIPKGPTGKLMRNELRAIFAREQAKSKL

Legend:
[1] = substrate: O=C(O)[C@H]1CSC(c2nc3ccc(O)cc3s2)=N1; test: purified protein, by the assay type; conditions: other: ammonium sulfate fractionated extract, luciferin 0.03-2 mM, 4 mM ATP solution, 8 mM MgSO4, 0.1 M Tris-HCl, pH 8.0, 25° C.
[2] = substrate: Nc1ncnc2c1ncn2[C@@H]1O[C@H](COP(=O)(O)OP(=O)(O)OP(=O)(O)O)[C@@H](O)[C@H]1O; test: KM determination, PhRE luciferase (light intensity in luminometer, Lineweaver-Burk plots); format: biochemical, Phrixothrix hirtus; conditions: other: ammonium sulfate fractionated extract, ATP 0.1-4 mM, 0.5 mM luciferin solution, 8 mM MgSO4, 0.1 M Tris-HCl, pH 8.0, 25° C.
Protocol: (§1) Liquid cultures of SOLR cells carrying luciferase insert containing pBl were grown on LB/amp (50 μg/mL) medium at 37° C. with shaking overnight. The preculture (1/100 vol) was then inoculated in LB/amp (50 μg/mL) in the presence of 1 mM IPTG and incubated at 23° C. during 24 h (OD600=1.8). The cells were harvested by centrifugation at 3000 rpm during 10 min at 4° C., and the pellet was resuspended in cold extraction buffer (0.1 M sodium phosphate buffer, pH 7.5, containing 2 mM EDTA, 1 mM DTT, and 1% Triton X-100). Lysozyme was added to the final concentration of 1 mg/mL and the suspension incubated 15 min at 0° C. and frozen at −80° C. during 15 min. The lysate was centrifuged at 12000 g at 4° C. during 15 min. The supernatant was then fractionated with ammonium sulfate. The fraction precipitated between 55% and 70% saturation was dissolved in cold extraction buffer and stored at −20° C. in the presence of glycerol 15%, to maintain the activity.
(§2) Measurements of light intensities for KM determinations were made using the luminometer described above. […] The assays were carried out at 25° C. Each point of the Michaelis-Menten curve was assayed in quadruplicate. The KM values were estimated by Lineweaver-Burk plots of the reciprocal of light intensities versus […].

[3] = Luciferase assays: luminometer light output and time course; format: biochemical; conditions: for total light output: in vivo and in vitro assays of IPTG-induced colonies, corrected for spectral photosensitivity
Protocol: The activity levels were measured using a Luminescencer AB-2000 luminometer (Atto; Tokyo, Japan) by integration of total light emitted. The assay consisted of the addition of 50 μL of standard solution (2 mM ATP, 0.5 mM D-luciferin, 4 mM MgSO4 in 0.1 M Tris-HCl buffer, pH 8.0) to 10 μL of luciferase-containing extracts at 25° C. In vivo light intensities were measured after adding 50 μL of 0.5 mM D-luciferin in 0.1 M sodium citrate buffer pH 5.0 to 10 μL of bacterial suspension into a microtiter plate.

[4] = substrate: Nc1ncnc2c1ncn2[C@@H]1O[C@H](COP(=O)(O)OP(=O)(O)OP(=O)(O)O)[C@@H](O)[C@H]1O; test: KM determination, PvGR luciferase (light intensity in luminometer, Lineweaver-Burk plots); format: biochemical, Phrixothrix vivianii; conditions: other: ammonium sulfate fractionated extract, ATP 0.1-4 mM, 0.5 mM luciferin solution, 8 mM MgSO4, 0.1 M Tris-HCl, pH 8.0, 25° C.
Protocol: as §1, §2

Molecule	Km [1]	Km [2]	total light output [3]	Km [4]	rise time to the peak of intensity and decay rate of in vitro bioluminescence reaction ([3]; compared with PvGR, results not shown)
B1	20 µM	240 µM	–	–	–
B2	150 µM	–	nearly the same values	350 µM	–
B3	–	–	nearly the same values	–	faster
